Data as given in patent publication US20250326840A1 (QURE BIOTECHNOLOGY SHANGHAI, published 2025).

Target: SIRPα V7 fusion Fc (mouse IgG2a) (human)
Experiment: ELISA, SIRPα V7-mouse IgG2a Fc coated, anti-hFab detection

Sequence of SIRPα V7 fusion Fc (mouse IgG2a) (human) (chain, as listed by the source limits assumed): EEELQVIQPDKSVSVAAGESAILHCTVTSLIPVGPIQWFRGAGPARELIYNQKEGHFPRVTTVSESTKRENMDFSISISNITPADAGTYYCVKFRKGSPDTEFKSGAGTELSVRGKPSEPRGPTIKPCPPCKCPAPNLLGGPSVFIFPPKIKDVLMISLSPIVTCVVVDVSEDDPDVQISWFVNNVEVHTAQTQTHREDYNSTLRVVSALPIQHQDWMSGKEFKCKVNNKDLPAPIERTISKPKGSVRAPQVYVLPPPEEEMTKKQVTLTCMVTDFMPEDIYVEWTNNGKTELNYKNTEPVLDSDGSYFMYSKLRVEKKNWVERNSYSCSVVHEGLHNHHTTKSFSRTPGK

B1: QP250251 (18D5 analog) (antibody, human IgG4 S228P, kappa, V domains shown)
VH: QVQLQQPGAELVRPGSSVKLSCKASGYTFTSYWVHWVKQRPIQGLEWIGNIDPSDSDTHYNQKFKDKASLTVDKSSSTAYMQLSSLTFEDSAVYYCVRGGTGTMAWFAYWGQGTLVTVSA
VL: DVVMTQTPLSLPVSLGDQASISCRSSQSLVHSYGNTYLYWYLQKPGQSPKLLIYRVSNRFSGVPDRFSGSGSGTDFTLKISRVEAEDLGVYFCFQGTHVPYTFGSGTKLEIKR
notes: also called SIRPα antibody 18D5 from OSE
- binding result: no binding (tested: about 67 nM (last point at log 1.8))
